B1: CP-3(iv) (peptide)
peptide: A[dW]A[azaPhe][dF]K-NH2
modifications: N-terminus assumed
SMILES: C[C@H](N)C(=O)N[C@H](Cc1c[nH]c2ccccc12)C(=O)N[C@@H](C)C(=O)NN(Cc1ccccc1)C(=O)N[C@H](Cc1ccccc1)C(=O)N[C@@H](CCCCN)C(N)=O
B2: CP-2B(i) (peptide)
peptide: H[dW][azaLeu]W[dF]A-NH2
modifications: N-terminus assumed
SMILES: CC(C)CN(NC(=O)[C@@H](Cc1c[nH]c2ccccc12)NC(=O)[C@@H](N)Cc1c[nH]cn1)C(=O)N[C@@H](Cc1c[nH]c2ccccc12)C(=O)N[C@H](Cc1ccccc1)C(=O)N[C@@H](C)C(N)=O
B3: 3-MPA-GGHHDD-OH (peptide)
peptide: [Mpa]GGHHDD-OH
SMILES: O=C(O)C[C@H](NC(=O)[C@H](CC(=O)O)NC(=O)[C@H](Cc1c[nH]cn1)NC(=O)[C@H](Cc1c[nH]cn1)NC(=O)CNC(=O)CNC(=O)CCS)C(=O)O
B4: 3-MPA-LHDLHD-OH (peptide)
peptide: [Mpa]LHDLHD-OH
SMILES: CC(C)C[C@H](NC(=O)CCS)C(=O)N[C@@H](Cc1c[nH]cn1)C(=O)N[C@@H](CC(=O)O)C(=O)N[C@@H](CC(C)C)C(=O)N[C@@H](Cc1c[nH]cn1)C(=O)N[C@@H](CC(=O)O)C(=O)O
B5: 3-MPA-DHDHD-OH (peptide)
peptide: [Mpa]DHDHD-OH
SMILES: O=C(O)C[C@H](NC(=O)[C@H](Cc1c[nH]cn1)NC(=O)[C@H](CC(=O)O)NC(=O)[C@H](Cc1c[nH]cn1)NC(=O)[C@H](CC(=O)O)NC(=O)CCS)C(=O)O
B6: 3-MPA-DSDSD-OH (peptide)
peptide: [Mpa]DSDSD-OH
SMILES: O=C(O)C[C@H](NC(=O)[C@H](CO)NC(=O)[C@H](CC(=O)O)NC(=O)[C@H](CO)NC(=O)[C@H](CC(=O)O)NC(=O)CCS)C(=O)O
B7: 3-MPA-LLHHDD-OH (peptide)
peptide: [Mpa]LLHHDD-OH
SMILES: CC(C)C[C@H](NC(=O)CCS)C(=O)N[C@@H](CC(C)C)C(=O)N[C@@H](Cc1c[nH]cn1)C(=O)N[C@@H](Cc1c[nH]cn1)C(=O)N[C@@H](CC(=O)O)C(=O)N[C@@H](CC(=O)O)C(=O)O
B8: 3-MPA-SHDSHD-OH (peptide)
peptide: [Mpa]SHDSHD-OH
SMILES: O=C(O)C[C@H](NC(=O)[C@H](Cc1c[nH]cn1)NC(=O)[C@H](CO)NC(=O)[C@H](CC(=O)O)NC(=O)[C@H](Cc1c[nH]cn1)NC(=O)[C@H](CO)NC(=O)CCS)C(=O)O

Numbered stars: 1 amine (or outer) side, 2 acyl side, 3 side chain; on linkers, the order of the positions; unused ones are H or OH. Square brackets hold non-standard residues; d marks the D form. Primed or numbered codes have the meaning given here. Ends that are not written are not given here. dTrp(2-Me) = Cc1[nH]c2ccccc2c1C[C@@H](N)C(=O)O; azaPhe = O=C(N(Cc1ccccc1)N[*:1])[*:2]; azaLeu = CC(C)CN(N[*:1])C(=O)[*:2]; azaTyr′ = not defined here; HAIC = not defined here; azaGly = NNC(=O)O; Mpa = O=C(O)CCS

For the first assay, the target named is CD36 receptor (in the src-kinase cellular assay). Description: cell-based or functional assay.
As to B1, the SRC-kinase cellular assay EC50 worked out at 44 nM. The same measure, in the same setting: the figure for H[dW][azaGly]W[dF]K-NH2 [CP-2A(v)] is 26 nM; for H[dW]A[azaTyr′][dF]K-NH2 [DBG-178(27)] it is 63 nM; for B2 it is over 10000 nM.

Another assay concerns the target nonspecific proteins present in blood serum. Put plainly: SPR, mass of serum proteins adsorbed on the peptide self-assembled monolayer on gold. On the technique in general: In SPR one partner is held on a chip, and binding of the other changes the refractive index at the surface.
The molecule [Mpa]LLLHH [3-MPA-LLLHH] displayed a nonspecific adsorption (ΔΓnonspecific) of 45 ng/cm^2. On the same count and under the same terms, the figure for [Mpa]SSSHH [3-MPA-SSSHH] is 79 ng/cm^2.

On to [Mpa]LLLDD [3-MPA-LLLDD], for which the nonspecific adsorption (ΔΓnonspecific) stood at 35 ng/cm^2.

The molecule B3 returned a nonspecific adsorption (ΔΓnonspecific) of 149 ng/cm^2. For [Mpa]DDDHH [3-MPA-DDDHH], the nonspecific adsorption (ΔΓnonspecific) was found to be 56 ng/cm^2. [Mpa]DDDSS [3-MPA-DDDSS] yielded a nonspecific adsorption (ΔΓnonspecific) of 69 ng/cm^2. Still for that read-out and setting: the figure for [Mpa]SSSDD [3-MPA-SSSDD] is 23 ng/cm^2. On to B4, for which the nonspecific adsorption (ΔΓnonspecific) is 12 ng/cm^2. Same read-out and setting: as for B5, the figure is 274 ng/cm^2; as for [Mpa]HHHSS [3-MPA-HHHSS], 48 ng/cm^2. The same measure, in the same setting: the figure for [Mpa]GGGGD-OH (SMILES O=C(O)C[C@H](NC(=O)CNC(=O)CNC(=O)CNC(=O)CNC(=O)CCS)C(=O)O) [3-MPA-GGGGD-OH] is 218 ng/cm^2. On the same count and under the same terms, as for [Mpa]HHHDD [3-MPA-HHHDD], the figure is 32 ng/cm^2. Molecule B6 had a nonspecific adsorption (ΔΓnonspecific) of 34 ng/cm^2. Same read-out and setting: as for [Mpa]LLLSS [3-MPA-LLLSS], the figure is 39 ng/cm^2.

Turning to B7, the nonspecific adsorption (ΔΓnonspecific) turned out to be 174 ng/cm^2.

With B8, the nonspecific adsorption (ΔΓnonspecific) was found to be 17 ng/cm^2.

For a further assay, the target named is recombinant soluble His-tagged CD36. Put plainly: SPR, His-tagged CD36 held on the Cu-NTA peptide monolayer, linear Langmuir plot.
Sequence of recombinant soluble His-tagged CD36 (P16671 30-439): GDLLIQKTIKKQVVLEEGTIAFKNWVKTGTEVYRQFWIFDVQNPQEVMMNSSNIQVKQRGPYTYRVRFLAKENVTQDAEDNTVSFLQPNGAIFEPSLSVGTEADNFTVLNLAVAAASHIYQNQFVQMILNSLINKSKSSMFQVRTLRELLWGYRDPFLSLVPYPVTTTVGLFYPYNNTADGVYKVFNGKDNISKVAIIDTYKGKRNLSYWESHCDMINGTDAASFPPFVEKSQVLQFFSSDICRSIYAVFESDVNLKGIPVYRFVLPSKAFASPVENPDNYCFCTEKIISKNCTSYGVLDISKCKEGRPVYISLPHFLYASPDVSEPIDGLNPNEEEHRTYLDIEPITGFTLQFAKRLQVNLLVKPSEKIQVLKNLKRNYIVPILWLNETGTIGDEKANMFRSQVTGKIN
With B1, the equilibrium dissociation constant (Kd) (in general, the constant that tells how readily two partners part at equilibrium) was determined as 380 nM. Same read-out and setting: the figure for H[dW][azaGly]W[dF]K-NH2 [CP-2A(v)] is 44 nM; for H[dW]A[azaTyr′][dF]K-NH2 [DBG-178(27)] it is 22 nM; for B2 it is 1400 nM.

For the molecule [HAIC][dTrp(2-Me)][dK]W[dF]K-NH2 (reading uncertain) [EP80317], the dissociation constant Kd stood at 82 nM.

(Values after patent US20120329986A1.)
